This data set deals with the molecule itself. Kind of data set: SEC. Background: In gel filtration, larger molecules generally elute earlier.

B1: human Hsp90α full-length protein with part of the charged linker between N and M removed (Hsp90Δ) (natural protein)
chain: not shown
Broadly, the stoichiometry N is a count of units in the complex or per binding partner. Regarding B1, the “stoichiometry N” value was 2.

B2: human Hsp90α MC two-domain construct (domain or fragment)
chain: not shown
Turning to B2, the “stoichiometry N” value is 2.

(Values after article PMC3143201 (Journal of molecular biology, 2011).)
